From patent US20180051072A1 (RPEPTIDE, published 2018) come the findings set out here.

Assay [1] concerns the target T1, Aβ(1-40) (human).
T1 construct: Peptide as coated on ELISA plates; its state of aggregation is not specified; also called Aβ-1-40 peptide; Beta-Amyloid 1-40
Nature of the assay: ELISA, peptide coated on plate. (In general: ELISA stands for enzyme-linked immunosorbent assay.)

Assay [2] concerns the target T2, Beta-Amyloid 1-40 monomer (human).
T2 construct: also called Beta-Amyloid Monomer; Aβ monomer (1-40)
In words: western blot, 7E7 as primary antibody (FIG. 20). The protocol:
(§1) Western blots were performed to determine the extent of 7E7 binding to human Beta-Amyloid, specifically to determine if the antibody binds to Aβ aggregates, Aβ monomer, or both. This procedure applies to any Aβ peptide or peptide fragment which is composed of up to and including 40 or 42 amino acids. Before beginning the assay the vials of Aβ to be used were treated with 1,1,1,3,3,3-Hexafluoro-2-propanol (Aldrich Chemistry #105228-100G) (also known as HFIP) at a rate of 150 μL HFIP per 0.5 mg peptide). Once the HFIP was added to the lyophilized pellet the vials were sonicated for exactly one minute, or until the solution was clear. Once the dissolved peptide had taken on a clear appearance, the HFIP was gently evaporated out of each vial by passing Argon gas directly into the vial with the rubber stopper open just enough to allow the gasses and fumes to escape. When the inside of the vials was free of any remaining liquid, the remaining peptide is dissolved with 1% Ammonium Hydroxide at a rate which yields a peptide concentration of 1 mg/mL. 10 μL of this solution was mixed with 90μL of Milli-Q water, and from that 100 μL mixture 20 μL was added to 50 μL XT Sample Buffer (Bio-Rad #161-0791) and 130μL Milli-Q water for a final sample volume of 200 μL. No 2-Mercaptoethanol was added, and the samples were not heated. […] Instead the mixture was gently mixed by using a pipette. […]
For orientation: Immunoblotting shows a protein as a band on a membrane.

The target of assay [3] is T3, Beta-Amyloid 1-42 monomer (human).
T3 construct: also called Beta-Amyloid Monomer; Aβ monomer (1-42)
T3 sequence (peptide, as listed by the source): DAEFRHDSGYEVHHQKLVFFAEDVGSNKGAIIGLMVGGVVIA
Nature of the assay: western blot, 7E7 as primary antibody (FIG. 20). The protocol: as §1

A further assay concerns the target T4, Aβ(1-42) (human).
T4 construct: its state of aggregation is not specified; also called Beta-Amyloid 1-42; Aβ42
Nature of the assay: ELISA, varying peptide amounts, 7E7 at 1:1,000 (FIG. 11).

Assay [4] concerns the target T1, Aβ(1-40). Nature of the assay: ELISA; reacts best with peptide that has not crossed through the isoelectric point.

T1 sequence (peptide, as listed by the source): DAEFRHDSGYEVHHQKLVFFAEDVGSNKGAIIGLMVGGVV

B1: monoclonal antibody 7E7 (antibody, V domains shown)
VH: EVKLVESGGGLVQPGSSQRLSCATSGFTFTDYYMSWVRQPPGKALEWLGFIRNKTKRYTTEYSASVKGRFTISRDNSQSILYLQMNTLRAEDSATYYCARDDPYARFAYWGQGTLVTVSA
VL: DVVMTQTPLSLPVSLGDQASISCRSGQSLVHRNGNTYLHWYLQKPGQSPKLLIYKVSNRFSGVPDRFSGSGTGTDFTLKISRVEAEDLGVYFCSQSTHVPFTFGSGTKLEIK
notes: Hybridoma monoclonal antibody raised against 1-42 rubredoxin fusion, detected with goat anti-mouse IgG (H+L); also called mAb 7E7; Beta Amyloid 7E7
As to B1, the binding result (with Aβ(1-40) [1]; in assay [2]; in assay [3]; with Aβ(1-42)) was “binds” in each case.

B2: monoclonal antibody 6C2 (antibody, V domains shown)
VH: EVQLQQSGPELVKPGASVKISCKASGYSFTGYFLSWVKQSHGRSLEWIGRINPYNGHTFYNQKFKDKATLTVDKSSTTAHMELLSLTSEDSAVYYCAGSDSWGQGTTLTVSS
VL: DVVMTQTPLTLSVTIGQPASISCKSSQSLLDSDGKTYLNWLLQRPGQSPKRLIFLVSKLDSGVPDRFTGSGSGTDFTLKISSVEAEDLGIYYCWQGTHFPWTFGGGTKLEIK
notes: Hybridoma monoclonal antibody; also called mAb 6C2; Beta Amyloid 6C2
In the case of B2, in the assay with Aβ(1-40) [4], the binding result was “binds”.
